In paper PMC6104945 (2018):

B1: NHBA_(312-427) (Neisserial heparin binding antigen, peptide 20, residues M312-D427) [Neisseria meningitidis (strain 2996)] / Fab 5H2 (Fab derived from the vaccine-elicited human monoclonal antibody 5H2) [human] (parent complex)
chain 1: MLAGTAVYNGEVLHFHTENGRPYPTRGRFAAKVDFGSKSVDGIIDSGDDLHMGTQKFKAAIDGNGFKGTWTENGGGDVSGRFYGPAGEEVAGKYSYRPTDAEKGGFGVFAGKKEQD
chain 2: not shown
chain 3: EIVMTQTPSSLSASVGDRVTITCRASQSISNYLNWYQQKPGTAPKLLTYAASSLGSGVPSRFSGSGSGTDLTLTISSLRPEDFATYYCQQSYGSPTFGQGTKLEIRRTVAAPSVFIFPPSDEQLKSGTASVVCLLNNFYPREAKVQWKVDNALQSGNSQESVTEQDSKDSTYSLSSTLTLSKADYEKHKVYACEVTHQGLSSPVTKSFNRGEC

Variants of: B1
Assay: SPR; Fab 5H2 captured on sensor chip, NHBA312-427 mutant injected; response read at end of injection (~48 s); read off a plot
In the case of chain 1 R28A, the response is reported as roughly 2 RU.
chain 1 R28G gave a response of roughly 30 RU.
For chain 1 E11A, chain 1 E114A, the response was roughly 51 RU.
With chain 1 R28G, chain 1 K56A the response was roughly 5 RU.
chain 1 D49A, chain 1 T54A was tested, and the response was roughly 42 RU.
With chain 1 R28A, chain 1 K56A the response was roughly 3 RU.
chain 1 K56A showed a response of roughly 58 RU.
